Results published in ChEMBL document CHEMBL1134320, “Structure of protein tyrosine phosphatase 1B in complex with inhibitors bearing two phosphotyrosine mimetics” (J Med Chem, 2001).

Substrate: O=P(O)(O)c1ccc(Cc2ccc(P(=O)(O)O)cc2)cc1
Assay: Binding affinity towards the binding site of human protein tyrosine phosphatase 1B (PTP1B) enzyme expressed in Escherichia coli cells

B1: Tyrosine-protein phosphatase non-receptor type 1 (Homo sapiens), P18031 (protein)
chain: MEMEKEFEQIDKSGSWAAIYQDIRHEASDFPCRVAKLPKNKNRNRYRDVSPFDHSRIKLHQEDNDYINASLIKMEEAQRSYILTQGPLPNTCGHFWEMVWEQKSRGVVMLNRVMEKGSLKCAQYWPQKEEKEMIFEDTNLKLTLISEDIKSYYTVRQLELENLTTQETREILHFHYTTWPDFGVPESPASFLNFLFKVRESGSLSPEHGPVVVHCSAGIGRSGTFCLADTCLLLMDKRKDPSSVDIKKVLLEMRKFRMGLIQTADQLRFSYLAVIEGAKFIMGDSSVQDQWKELSHEDLEPPPEHIPPPPRPPKRILEPHNGKCREFFPNHQWVKEETQEDKDCPIKEEKGSPLNAAPYGIESMSQDTEVRSRVVGGSLRGAQAASPAKGEPSLPEKDEDHALSYWKPFLVNMCVATVLTAGAYLCYRFLFNSNT
- Km: 16 µM
